Data published in US20070060521A1.

These binders were tested against GST-Stat3 fusion protein (full-length STAT3 fused to bacterial glutathione S-transferase) (assay: phage display panning on GST-Stat3, clones sequenced after selection).
GST-Stat3 fusion protein (full-length STAT3 fused to bacterial glutathione S-transferase), sequence (P40763 whole entry, the tested form may be a part): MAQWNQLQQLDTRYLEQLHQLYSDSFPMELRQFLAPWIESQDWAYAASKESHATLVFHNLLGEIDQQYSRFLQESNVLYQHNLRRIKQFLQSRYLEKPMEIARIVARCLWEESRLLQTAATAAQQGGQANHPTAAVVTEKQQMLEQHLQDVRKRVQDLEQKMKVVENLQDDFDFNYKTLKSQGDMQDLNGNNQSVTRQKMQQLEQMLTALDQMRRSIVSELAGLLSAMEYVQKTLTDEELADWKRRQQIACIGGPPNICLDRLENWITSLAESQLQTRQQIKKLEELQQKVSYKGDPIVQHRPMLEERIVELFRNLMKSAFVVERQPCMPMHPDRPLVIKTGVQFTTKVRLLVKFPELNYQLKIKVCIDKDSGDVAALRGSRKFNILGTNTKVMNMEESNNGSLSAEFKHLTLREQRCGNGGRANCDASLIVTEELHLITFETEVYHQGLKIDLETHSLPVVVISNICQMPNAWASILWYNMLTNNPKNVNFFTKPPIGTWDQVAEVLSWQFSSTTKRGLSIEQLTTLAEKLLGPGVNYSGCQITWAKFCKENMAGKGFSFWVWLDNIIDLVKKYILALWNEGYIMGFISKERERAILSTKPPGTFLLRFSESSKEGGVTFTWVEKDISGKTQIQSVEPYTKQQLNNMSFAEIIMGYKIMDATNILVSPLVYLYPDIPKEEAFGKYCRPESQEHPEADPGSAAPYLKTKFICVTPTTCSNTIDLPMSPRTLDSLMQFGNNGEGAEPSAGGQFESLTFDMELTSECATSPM

Frequency (out of 100 clones) [%] | Binder
9 | SHPWNAQRELSVGGGS (peptide, not shown: large carriers) [… (SEQ ID NO:14)]
8 | YPAPQPLVTKTSGGGS (peptide, not shown: large carriers) [… (SEQ ID NO:15)]
8 | FSYPLTRAPLNMGGGS (peptide, not shown: large carriers) [… (SEQ ID NO:16)]
13 | QDVHLTQQSRYTGGGS (peptide, not shown: large carriers) [… (SEQ ID NO:13)]

The binders below were run against GST fusion protein containing the isolated SH2 domain of STAT3 (assay: phage display panning on the isolated SH2 domain of STAT3, clones sequenced after selection).
GST fusion protein containing the isolated SH2 domain of STAT3, sequence (P40763 580-670): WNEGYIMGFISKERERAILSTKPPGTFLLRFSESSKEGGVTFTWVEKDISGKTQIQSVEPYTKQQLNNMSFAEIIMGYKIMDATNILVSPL

Frequency (out of 100 clones) [%] | Binder
7 | ASTLPKA (peptide, not shown: small tags and cut ends; large carriers) [ASTLPKA (SEQ ID NO:18)]
6 | IQSPHFF (peptide, not shown: small tags and cut ends; large carriers) [IQSPHFF (SEQ ID NO:19)]
16 | HAIYPRN (peptide, not shown: small tags and cut ends; large carriers) [HAIYPRN (SEQ ID NO:17)]
